# In patent US20240287172A1 (SCIRHOM, published 2024):
# B1: antibody 16 (antibody, V domains shown)
# VH: QVTLKESGPGILQPSQTLSLTCSFSGFSLSTFALGVGWIRQPSGRGLEWLAHIWWDDDKYYNPALKSRLTISKDTSKNHVFLKIANVDTADTATYYCARITTYYYGMDYWGQGTSVTVSS
# VL: DIVLSQSPATLSVTPGDSVSLFCRASQSIGNHLHWYQQESHASPRLLIKYASQSISGIPSRFSGSGSGTDFTLSINSVETEDFGMYFCQQSYNWPLTFGAGTKLELK
# notes: mouse IgG, kappa light chain; also called clone #16; purified antibody 16
# B2: antibody 48 (antibody, V domains shown)
# VH: QVQLQQSGTELVRPGTSVKVSCKASGYAFTNYLIEWVKQRPGQGLEWIGVINPGSGFTKYNEKFKGKATLTADKSSSTVYMHLSSLTSEDSAVYFCARGLYRAMDYWGQGTSVTVSS
# VL: DIQMTQSPASQSASLGESVTITCLASQTIATWLAWYQQKPGKSPQLLIYGATTLADGVPSRFSGGGSGTKFSFKISSLQAEDFVSYYCQQLYSTPYTFGGGTKLEIK
# notes: mouse IgG, kappa light chain; also called clone #48; purified antibody 48
# Columns and labels:
# [1] = target: T1, dog iRhom2 full length wild type, T7-tagged (dog, UniProt Q00M95 1-827); assay: FACS on MEF-DKO-iR2 Dog cells, 3 µg/ml
# T1 construct: whole, on cells; on MEF-DKO cells; also called Dog-iR2-FL-WT-T7
# T1 sequence: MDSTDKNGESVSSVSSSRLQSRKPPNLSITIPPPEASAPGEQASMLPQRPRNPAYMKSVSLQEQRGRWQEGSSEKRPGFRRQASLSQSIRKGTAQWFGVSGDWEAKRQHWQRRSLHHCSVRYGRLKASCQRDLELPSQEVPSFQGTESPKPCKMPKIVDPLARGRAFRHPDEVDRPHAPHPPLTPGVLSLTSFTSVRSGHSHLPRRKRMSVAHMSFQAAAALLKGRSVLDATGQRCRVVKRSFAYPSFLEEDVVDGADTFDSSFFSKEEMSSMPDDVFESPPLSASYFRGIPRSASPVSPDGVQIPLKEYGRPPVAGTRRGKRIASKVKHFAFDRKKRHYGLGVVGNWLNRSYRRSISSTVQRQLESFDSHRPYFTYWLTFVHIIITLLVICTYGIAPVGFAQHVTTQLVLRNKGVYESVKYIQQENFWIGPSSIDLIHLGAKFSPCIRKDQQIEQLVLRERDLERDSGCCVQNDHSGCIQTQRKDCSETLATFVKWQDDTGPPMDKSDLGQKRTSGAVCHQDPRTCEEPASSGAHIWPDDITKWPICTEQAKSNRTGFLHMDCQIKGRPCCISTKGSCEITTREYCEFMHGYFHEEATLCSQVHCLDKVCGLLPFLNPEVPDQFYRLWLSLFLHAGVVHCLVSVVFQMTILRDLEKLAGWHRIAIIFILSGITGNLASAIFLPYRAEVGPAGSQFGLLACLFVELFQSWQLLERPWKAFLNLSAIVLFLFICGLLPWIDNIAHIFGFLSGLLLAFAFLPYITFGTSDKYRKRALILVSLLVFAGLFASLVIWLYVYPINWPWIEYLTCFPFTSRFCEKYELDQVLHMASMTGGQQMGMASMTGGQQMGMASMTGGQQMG
# Experimental: In brief, immortalized MEF-DKO-EV control cells, MEF-DKO-rhesus-iR2-FL-WT-T7 cells, MEF-DKO-cyno-iR2-FL-WT-T7 cells, MEF-DKO-dog-iR2-FL-WT-T7 cells and MEF-DKO-rabbit-iR2-FL-WT-T7 cells, as well as their respective iRhom1 counterparts, were harvested with 10 mM EDTA in PBS, washed and resuspended in FACS buffer (PBS, 3% FBS, 0.05% sodium azide), and seeded in Nunc U-bottom 96-well plates (Thermo Fisher Scientific, USA) at approximately 3×10⁵ cells per well. To pellet cells and remove supernatants, the plates were centrifuged at 1,500 rpm and 4° C. for 3 minutes. For primary staining, cells were resuspended in 100 μl per well of either FACS buffer alone (controls), mouse monoclonal anti-T7 IgG (Merck Millipore, USA) at 3 μg/ml FACS buffer or the antibodies of the invention also at 3 μg/ml FACS buffer and incubated on ice for 1 hour.
# Afterwards, plates were centrifuged at 1,500 rpm and 4° C. for 3 minutes and washed twice with 200 μl per well of FACS buffer. For secondary staining, cells were spun down and resuspended in 100 μl per well of PE-conjugated goat anti-mouse IgG F(ab′)2 detection fragment (Dianova, Germany) diluted 1:100 in FACS buffer. Protected from light, the cell suspensions were incubated on ice for 1 hour. […] Finally, cells were resuspended in 150 μl per well of FACS buffer and analyzed using a BD Accuri™ C6 Plus flow cytometer (Becton Dickinson, Germany).
# hiR2-FL-S545F-T7 = target: T2, hiR2-FL-S545F-T7 (human, UniProt Q6PJF5 1-856); assay: FACS, MEF-DKO cells, 3 µg/ml
# T2 sequence: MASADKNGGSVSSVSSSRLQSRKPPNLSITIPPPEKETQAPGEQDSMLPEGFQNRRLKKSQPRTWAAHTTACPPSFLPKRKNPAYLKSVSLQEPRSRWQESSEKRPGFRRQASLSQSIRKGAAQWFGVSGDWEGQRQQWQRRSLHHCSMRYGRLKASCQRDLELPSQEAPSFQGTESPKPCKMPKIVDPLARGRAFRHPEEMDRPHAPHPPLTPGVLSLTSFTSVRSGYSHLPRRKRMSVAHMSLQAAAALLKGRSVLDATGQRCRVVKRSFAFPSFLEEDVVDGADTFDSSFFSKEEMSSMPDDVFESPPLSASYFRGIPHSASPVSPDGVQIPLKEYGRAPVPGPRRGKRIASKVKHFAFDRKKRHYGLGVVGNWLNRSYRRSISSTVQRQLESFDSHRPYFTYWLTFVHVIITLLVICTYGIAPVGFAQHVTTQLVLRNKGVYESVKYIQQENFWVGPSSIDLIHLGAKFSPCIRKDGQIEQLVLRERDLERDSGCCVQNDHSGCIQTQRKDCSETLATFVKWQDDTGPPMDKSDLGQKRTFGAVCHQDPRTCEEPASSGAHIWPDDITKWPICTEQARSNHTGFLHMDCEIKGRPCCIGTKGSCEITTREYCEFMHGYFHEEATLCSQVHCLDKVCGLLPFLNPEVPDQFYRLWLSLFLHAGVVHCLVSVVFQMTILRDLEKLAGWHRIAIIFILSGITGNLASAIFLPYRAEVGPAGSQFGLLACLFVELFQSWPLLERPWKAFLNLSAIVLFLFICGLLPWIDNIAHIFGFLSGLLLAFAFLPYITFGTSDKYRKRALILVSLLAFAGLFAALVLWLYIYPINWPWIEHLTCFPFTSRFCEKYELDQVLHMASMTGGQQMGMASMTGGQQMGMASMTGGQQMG
Binder,binding result [1],loss of binding vs wild type (hiR2-FL-S545F-T7) [%]
B1,binds,
B2,,≥ 30
